Source: US20200181283A1 (AGENCY FOR SCIENCE TECHNOLOGY AND RESEARCH, published 2020)

Columns and labels:
[1] = biological target: T1, purified human PRL-3 (human, UniProt O75365 1-173, limits assumed); test: KinExA kinetic exclusion assay
T1 construct: Antigen of the KinExA analysis; also called PTP4A3; PRL-3 antigen

[2] = biological target: T1, purified human PRL-3; test: KinExA kinetic exclusion assay, purified antibody and purified human PRL-3

T1 sequence (O75365 whole entry): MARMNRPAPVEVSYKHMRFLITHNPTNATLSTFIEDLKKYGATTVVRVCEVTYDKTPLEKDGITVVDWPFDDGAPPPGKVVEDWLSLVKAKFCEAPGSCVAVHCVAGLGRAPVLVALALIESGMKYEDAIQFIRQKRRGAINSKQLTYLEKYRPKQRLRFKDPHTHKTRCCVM

koff [1]: 6.68e-05 s⁻¹
kon [1]: 1.06e+07 M⁻¹ s⁻¹
Kd [2]: 6.29 pM
B1: PRL3-zumab (antibody, V domains shown)
VH: QVQLVQSGAEVKKPGASVKVSCKASGYTFTNYYMHWVRQAPGQLEWMGWIYPGNVNTYYNEKFRGRVTITADTSASTAYMLSSLRSEDTAVYYCASEEKNYPWFAYWGQGTLVTS
VL: DTQLTQSPSSLSASVGDRVTICKASQSVEDDGENYMNWYQQKPGSPKLLIYAASNLESGIPARFSGSGSGTDFTLTISSLPEDFATYYCQQSNEDPFTFGSGTKLEIK
